# Source: US20150368311A1 (Sanofi, published 2015)
# Positions count from the first letter of the chain named. Non-standard residues stand in square brackets, D forms with d. No end group written: not given here. Ala(4-thiazolyl) = N[C@@H](Cc1cscn1)C(=O)O; Nle = CCCC[C@H](N)C(=O)O
# B1: SEQ ID NO: 14 (peptide)
# peptide: XSQGTFTSDISKQXESRRAQEFIEWLLATGPESGAPPPS
# modifications: Tza (L-4-thiazolylalanine) at position 1; Nle at position 14; C-terminal -OH
# B2: SEQ ID NO: 17 (peptide)
# peptide: B1 peptide with I10Y
# modifications: Tza (L-4-thiazolylalanine) at position 1; Nle at position 14; C-terminal -OH
# B3: SEQ ID NO: 13 (peptide)
# peptide: [Ala(4-thiazolyl)]SQGTFTSDFSKQ[Nle]ESRRAQDFIEWLLATGPESGAPPPS-OH
# modifications: N-terminus assumed
# SMILES: CCCC[C@H](NC(=O)[C@H](CCC(N)=O)NC(=O)[C@H](CCCCN)NC(=O)[C@H](CO)NC(=O)[C@H](Cc1ccccc1)NC(=O)[C@H](CC(=O)O)NC(=O)[C@H](CO)NC(=O)[C@@H](NC(=O)[C@H](Cc1ccccc1)NC(=O)[C@@H](NC(=O)CNC(=O)[C@H](CCC(N)=O)NC(=O)[C@H](CO)NC(=O)[C@@H](N)Cc1cscn1)[C@@H](C)O)[C@@H](C)O)C(=O)N[C@@H](CCC(=O)O)C(=O)N[C@@H](CO)C(=O)N[C@@H](CCCNC(=N)N)C(=O)N[C@@H](CCCNC(=N)N)C(=O)N[C@@H](C)C(=O)N[C@@H](CCC(N)=O)C(=O)N[C@@H](CC(=O)O)C(=O)N[C@@H](Cc1ccccc1)C(=O)N[C@H](C(=O)N[C@@H](CCC(=O)O)C(=O)N[C@@H](Cc1c[nH]c2ccccc12)C(=O)N[C@@H](CC(C)C)C(=O)N[C@@H](CC(C)C)C(=O)N[C@@H](C)C(=O)N[C@H](C(=O)NCC(=O)N1CCC[C@H]1C(=O)N[C@@H](CCC(=O)O)C(=O)N[C@@H](CO)C(=O)NCC(=O)N[C@@H](C)C(=O)N1CCC[C@H]1C(=O)N1CCC[C@H]1C(=O)N1CCC[C@H]1C(=O)N[C@@H](CO)C(=O)O)[C@@H](C)O)[C@@H](C)CC
# B4: SEQ ID NO: 9 (peptide)
# peptide: [Ala(4-thiazolyl)]SQGTFTSDVSKQLESRRAQEFIEWLLAGGPESGAPPPS-OH
# modifications: N-terminus assumed
# SMILES: CC[C@H](C)[C@H](NC(=O)[C@H](Cc1ccccc1)NC(=O)[C@H](CCC(=O)O)NC(=O)[C@H](CCC(N)=O)NC(=O)[C@H](C)NC(=O)[C@H](CCCNC(=N)N)NC(=O)[C@H](CCCNC(=N)N)NC(=O)[C@H](CO)NC(=O)[C@H](CCC(=O)O)NC(=O)[C@H](CC(C)C)NC(=O)[C@H](CCC(N)=O)NC(=O)[C@H](CCCCN)NC(=O)[C@H](CO)NC(=O)[C@@H](NC(=O)[C@H](CC(=O)O)NC(=O)[C@H](CO)NC(=O)[C@@H](NC(=O)[C@H](Cc1ccccc1)NC(=O)[C@@H](NC(=O)CNC(=O)[C@H](CCC(N)=O)NC(=O)[C@H](CO)NC(=O)[C@@H](N)Cc1cscn1)[C@@H](C)O)[C@@H](C)O)C(C)C)C(=O)N[C@@H](CCC(=O)O)C(=O)N[C@@H](Cc1c[nH]c2ccccc12)C(=O)N[C@@H](CC(C)C)C(=O)N[C@@H](CC(C)C)C(=O)N[C@@H](C)C(=O)NCC(=O)NCC(=O)N1CCC[C@H]1C(=O)N[C@@H](CCC(=O)O)C(=O)N[C@@H](CO)C(=O)NCC(=O)N[C@@H](C)C(=O)N1CCC[C@H]1C(=O)N1CCC[C@H]1C(=O)N1CCC[C@H]1C(=O)N[C@@H](CO)C(=O)O
# Target: human GLP-1 receptor (human, UniProt P43220 24-463)
# Assay: cell-based or functional assay
row,Binder,"EC50 hGLP-1 R [pM], cAMP formation [pM]"
1,B1,52900
2,B2,6940
3,B3,32100
4,B4,12200

# Target: human glucagon receptor (human, UniProt P47871 26-477)
# Assay: cell-based or functional assay
# Sequence of human glucagon receptor (P47871 26-477): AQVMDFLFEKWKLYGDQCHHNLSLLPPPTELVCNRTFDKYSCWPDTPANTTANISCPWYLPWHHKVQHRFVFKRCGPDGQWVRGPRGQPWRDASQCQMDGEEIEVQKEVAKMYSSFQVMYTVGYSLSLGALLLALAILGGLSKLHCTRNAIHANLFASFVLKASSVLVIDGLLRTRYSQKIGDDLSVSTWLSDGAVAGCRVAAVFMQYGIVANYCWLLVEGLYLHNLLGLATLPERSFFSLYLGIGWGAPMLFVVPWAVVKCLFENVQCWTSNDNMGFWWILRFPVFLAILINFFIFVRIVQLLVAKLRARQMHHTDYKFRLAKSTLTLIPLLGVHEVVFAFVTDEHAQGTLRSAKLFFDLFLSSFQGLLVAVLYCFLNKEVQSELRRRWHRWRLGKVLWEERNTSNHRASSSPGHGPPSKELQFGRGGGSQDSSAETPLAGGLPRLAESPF
row,Binder,"EC50 hGLUC R [pM], cAMP formation [pM]"
1,B1,1.2
2,B2,1
3,B3,3.1
4,B4,2.2
